Source: paper PMC3265607 (Journal of Molecular Biology, 2011)
Each block holds one molecule with its values, some of them ahead of it.

Experiments:
[1] = molecular target: ceNXT1, His6, pET28b construct for pull-down assays (Caenorhabditis elegans) (UniProt Q9U757); assay: SEC
[2] = molecular target: T1, ceNXT1 (residues 2-137), His6, pETDuet-1 construct for structural studies (Caenorhabditis elegans, UniProt Q9U757 2-137, SeMet-labeled (selenomethionine)); assay: SEC
T1 sequence (looked up): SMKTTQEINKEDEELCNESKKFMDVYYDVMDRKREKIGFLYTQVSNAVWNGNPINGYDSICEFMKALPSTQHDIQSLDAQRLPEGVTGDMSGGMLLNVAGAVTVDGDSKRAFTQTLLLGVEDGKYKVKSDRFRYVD

stoichiometry N [1]: 1
Molecule: ceNXF1(NTF2) (from UniProt Q9XVS7 352-539) (domain or fragment)

stoichiometry N [2]: 1
B1: ceNXF2(NTF2) (domain or fragment, Caenorhabditis elegans, UniProt Q9XVS8 202-405, looked up)
chain: FRNGYYGSDEVRTLVEEFIITYYKIYDGADGQQTRKQLLDAYDTNNSTFTHTVVCLWDPIKFVMYPDSESYRMYLRTSHNVLNQEYFAANRASRISHGAMDIVVALSRLPATIHLMDTFVVDVFLVSATLLGFTLHGTFRDGPSAIKPENTEEHDNYFTRTFMVAPRGEGKVAIVSDQLFISSMSKRRGDQYRMLVETATDIDQ
